The source of these data is the supplement of paper PMC10724198.

± gives the standard deviation of the averaged measurements.

Series [1] has as its system Saccharomyces cerevisiae. The experiment in a line: protein stability index of tFT-peptide fusion (C-terminal peptide) (PSI (0-1 scale)); higher = more stable (slower turnover). On the procedure: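 MPS profiling in S. cerevisiae of the tFT-X12 degron library: putative degron peptides plus stable controls, 12 aa, fused to the C-terminus of a sfGFP-mCherry timer. Cells are FACS-sorted into 8 mCherry/sfGFP bins and deep-sequenced. PSI runs from 0 (unstable) to 1 (stable). Backgrounds are wild type, das1Δ and doa10Δ at 30 °C, and wild type, das1Δ, cdc34-1 and cdc53-1 at 37 °C; 2-3 technical replicates each.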

Series [2] deals with Saccharomyces cerevisiae. The series is described as above. Conditions: genetic background: wild type; temperature: 30 C.
[3] abbreviates: genetic background: cdc34-1, temperature: 37 C.
Setting [4] is: genetic background: cdc53-1, temperature: 37 C.
The mark [5] stands for this setting: genetic background: das1 deletion, temperature: 30 C.
[6] abbreviates: genetic background: das1 deletion, temperature: 37 C.
Setting [7] is: genetic background: doa10 deletion, temperature: 30 C.
Setting [8] is: genetic background: wild type, temperature: 30 C.
[9] abbreviates: genetic background: wild type, temperature: 37 C.
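Also: PSI is a weighted mean of sequencing reads over stability bins, variants kept only with over 10 reads, mCherry proximal and sfGFP distal, peptide attached via GGGS linker.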

For APPRLPLLSCSQ, the protein stability index in the series with Saccharomyces cerevisiae [1] (setting [3]) was found to be 0.652 ± 0.021; in the series on Saccharomyces cerevisiae [1] (setting [4]), 0.712 ± 0.0095; in the series with Saccharomyces cerevisiae [1] (setting [5]), 0.661 ± 0.05; with Saccharomyces cerevisiae [1] (setting [6]), 0.6939 ± 0.00016; in the series with Saccharomyces cerevisiae [1] (setting [7]), 0.684 ± 0.045; in the series with Saccharomyces cerevisiae [1] (setting [8]) it was 0.642 ± 0.044. Besides, the protein stability index in the series with Saccharomyces cerevisiae [1] (setting [9]) turned out to be 0.699 ± 0.014. Take APPSRRLTLRLA: the protein stability index with Saccharomyces cerevisiae [1] (setting [3]) stood at 0.577 ± 0.039; in the series with Saccharomyces cerevisiae [1] (setting [4]) it was 0.696 ± 0.019; in the series with Saccharomyces cerevisiae [1] (setting [5]), 0.6614 ± 0.0066; in the series on Saccharomyces cerevisiae [1] (setting [6]), 0.709 ± 0.017; in the series with Saccharomyces cerevisiae [1] (setting [7]) it was 0.142 ± 0.003; with Saccharomyces cerevisiae [1] (setting [8]), 0.145 ± 0.0058. This sequence also had a protein stability index with Saccharomyces cerevisiae [1] (setting [9]) of 0.32 ± 0.044.

As to CLVISVLFGVVA, the protein stability index came to 0.2376 ± 0.00026 with Saccharomyces cerevisiae [1] (setting [3]); 0.269 ± 0.067 in the series on Saccharomyces cerevisiae [1] (setting [4]); 0.218 ± 0.034 with Saccharomyces cerevisiae [1] (setting [5]); 0.382 ± 0.0091 in the series with Saccharomyces cerevisiae [1] (setting [6]); 0.1782 ± 0.0014 with Saccharomyces cerevisiae [1] (setting [7]); 0.21 ± 0.016 in the series on Saccharomyces cerevisiae [1] (setting [8]). For the same sequence, the protein stability index in the series on Saccharomyces cerevisiae [1] (setting [9]) was 0.326 ± 0.0065. On to FLPPVHRCFSIF, for which the protein stability index with Saccharomyces cerevisiae [1] (setting [3]) amounted to 0.671 ± 0.037; in the series with Saccharomyces cerevisiae [1] (setting [4]), 0.742 ± 0.013; in the series with Saccharomyces cerevisiae [1] (setting [5]), 0.653 ± 0.022; with Saccharomyces cerevisiae [1] (setting [6]), 0.745 ± 0.021; in the series on Saccharomyces cerevisiae [1] (setting [7]) it was 0.172 ± 0.014; in the series on Saccharomyces cerevisiae [1] (setting [8]), 0.193 ± 0.032. In the series on Saccharomyces cerevisiae [1] (setting [9]), this sequence gave a protein stability index of 0.3915 ± 0.0028. As to GFLFVLCAWGFF, the protein stability index with Saccharomyces cerevisiae [1] (setting [3]) amounted to 0.178 ± 0.017; with Saccharomyces cerevisiae [1] (setting [4]), 0.321 ± 0.039; with Saccharomyces cerevisiae [1] (setting [5]), 0.227 ± 0.022; with Saccharomyces cerevisiae [1] (setting [6]), 0.386 ± 0.019; in the series with Saccharomyces cerevisiae [1] (setting [7]) it was 0.21 ± 0.0069; in the series on Saccharomyces cerevisiae [1] (setting [8]) it was 0.236 ± 0.0048. Moreover, the protein stability index in the series on Saccharomyces cerevisiae [1] (setting [9]) is 0.318 ± 0.0066. GGGWGGRWGRLC: the protein stability index was found to be 0.639 ± 0.047 with Saccharomyces cerevisiae [1] (setting [3]); 0.754 ± 0.0091 in the series on Saccharomyces cerevisiae [1] (setting [4]); 0.6543 ± 0.0029 in the series with Saccharomyces cerevisiae [1] (setting [5]); 0.75462 ± 8e-05 in the series on Saccharomyces cerevisiae [1] (setting [6]); 0.193 ± 0.021 with Saccharomyces cerevisiae [1] (setting [7]); 0.218 ± 0.035 in the series with Saccharomyces cerevisiae [1] (setting [8]). This sequence had a protein stability index with Saccharomyces cerevisiae [1] (setting [9]) of 0.479 ± 0.0076. With WMAFRRIPTWSG, the protein stability index in the series with Saccharomyces cerevisiae [2] came to 0.679 ± 0.073. Same read-out and setting: the figure for WMSLLEFGSLCG is 0.748 ± 0.15. Consider WPGYLTNVLPVI, for which the protein stability index in the series on Saccharomyces cerevisiae [2] is 0.65 ± 0.029. On to WPSTLHRGLSLP, for which the protein stability index in the series with Saccharomyces cerevisiae [2] was found to be 0.702 ± 0.074. Turning to WRCAGVGGVGGG, the protein stability index with Saccharomyces cerevisiae [2] is 0.708 ± 0.012.

The sequence WRGIFPSRFCLS gave a protein stability index with Saccharomyces cerevisiae [2] of 0.62 ± 0.039. WRGRWVWGVGEV: the protein stability index in the series with Saccharomyces cerevisiae [2] amounted to 0.628 ± 0.069. Take WRLAGRRGIQCD: the protein stability index in the series on Saccharomyces cerevisiae [2] turned out to be 0.7 ± 0.017.

WRLCWWVVESGG: the protein stability index in the series on Saccharomyces cerevisiae [2] is 0.639 ± 0.02. WRPPPPYSPFSL registered a protein stability index in the series on Saccharomyces cerevisiae [2] of 0.74 ± 0.066. Take WRRLVGGVAWLW: the protein stability index in the series on Saccharomyces cerevisiae [2] was 0.726 ± 0.08. With WRVVTPPSVDHR, the protein stability index with Saccharomyces cerevisiae [2] came out at 0.677 ± 0.015. In the case of WSAPHPVCSPPS, the protein stability index in the series with Saccharomyces cerevisiae [2] came out at 0.697 ± 0.0093.

Consider WSGERCFLGFYR, for which the protein stability index in the series on Saccharomyces cerevisiae [2] worked out at 0.771 ± 0.087. In the series with Saccharomyces cerevisiae [2], WSPVPVPPPLPT gave a protein stability index of 0.722 ± 0.083. The sequence WSSCISCLLRGV returned a protein stability index with Saccharomyces cerevisiae [2] of 0.688 ± 0.066. In the case of WSSSRPASGSSA, in the series with Saccharomyces cerevisiae [2], the protein stability index amounted to 0.708 ± 0.016.

Sequence WSSVLGYFSRKE yielded a protein stability index in the series with Saccharomyces cerevisiae [2] of 0.702 ± 0.024. Sequence WTAITDRRSRPD yielded a protein stability index in the series with Saccharomyces cerevisiae [2] of 0.616 ± 0.063. WTDHISEHLHTV gave a protein stability index in the series with Saccharomyces cerevisiae [2] of 0.742 ± 0.039. In turn, WTFEYRNHKMKK registered a protein stability index in the series with Saccharomyces cerevisiae [2] of 0.7149 ± 0.0071. Same read-out and setting: the figure for WVAFTRGGCGHC is 0.66 ± 0.017; for WVCARQVGIGWG it is 0.6657 ± 0.0019.

Sequence WVCCVGAGFLVV came in with a protein stability index with Saccharomyces cerevisiae [2] of 0.594 ± 0.03. The same measure, in the same setting: the figure for WVCRGSSLKSSI is 0.677 ± 0.058; for WVFRHSTMNNEN it is 0.672 ± 0.094; for WVGEVSMGVRAG it is 0.666 ± 0.014.

For WVGLGMSLRRAA, the protein stability index in the series with Saccharomyces cerevisiae [2] amounted to 0.564 ± 0.062. On the same count and under the same terms, the figure for WVSMDFTGLVNG is 0.628 ± 0.015.

Sequence WVTKGLYIMSTK yielded a protein stability index with Saccharomyces cerevisiae [2] of 0.663 ± 0.11. The sequence WVVGCVRGVWGA gave a protein stability index with Saccharomyces cerevisiae [2] of 0.712 ± 0.051.
